# Data taken from article PMC3988567.
# Molecular target: ZnF-UBP domain from USP5 (human) (UniProt P45974)
# Experiment: ITC
# ZnF-UBP domain from USP5 (human), sequence (P45974 163-291): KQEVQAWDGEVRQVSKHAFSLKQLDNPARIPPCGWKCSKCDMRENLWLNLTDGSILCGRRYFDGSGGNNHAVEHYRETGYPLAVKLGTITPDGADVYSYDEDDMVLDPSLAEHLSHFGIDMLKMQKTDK
substance,measurement,value
ubiquitin (from UniProt P0CG48 1-76) (natural protein),stoichiometry N,1
